Data: patent US6878804B1, “Synthesis of template-fixed β-hairpin loop mimetics” (University of Zurich, priority 1999, dated 2005)
Non-standard residues stand in square brackets, D forms with d.

T1: platelet-derived growth factor β-receptor (PDGFR-β)
T1 chain: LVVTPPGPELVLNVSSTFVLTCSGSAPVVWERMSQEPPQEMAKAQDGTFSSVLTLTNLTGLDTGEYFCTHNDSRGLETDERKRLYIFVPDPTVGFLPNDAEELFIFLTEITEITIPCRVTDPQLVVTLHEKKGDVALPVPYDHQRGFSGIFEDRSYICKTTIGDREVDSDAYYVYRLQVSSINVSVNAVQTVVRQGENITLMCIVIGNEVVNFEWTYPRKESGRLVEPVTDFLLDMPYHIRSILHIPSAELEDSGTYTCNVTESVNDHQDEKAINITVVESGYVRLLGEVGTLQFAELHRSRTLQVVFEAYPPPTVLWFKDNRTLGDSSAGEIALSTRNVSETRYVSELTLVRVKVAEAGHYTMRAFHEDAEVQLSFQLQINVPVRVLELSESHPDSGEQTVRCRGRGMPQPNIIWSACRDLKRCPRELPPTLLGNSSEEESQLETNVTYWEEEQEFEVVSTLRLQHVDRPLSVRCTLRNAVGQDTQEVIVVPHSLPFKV

B1: target cyclic peptide 23 (peptide)
peptide: cyclo(PASVRKKSA[dP])
SMILES: CC(C)[C@@H]1NC(=O)[C@H](CO)NC(=O)[C@H](C)NC(=O)[C@@H]2CCCN2C(=O)[C@H]2CCCN2C(=O)[C@H](C)NC(=O)[C@H](CO)NC(=O)[C@H](CCCCN)NC(=O)[C@H](CCCCN)NC(=O)[C@H](CCCNC(=N)N)NC1=O
notes: also called ^LP-A-S-V-R / ^DP-A-S-K-K
B2: target cyclic peptide 24 (peptide)
peptide: cyclo(PAKVRKKKA[dP])
SMILES: CC(C)[C@@H]1NC(=O)[C@H](CCCCN)NC(=O)[C@H](C)NC(=O)[C@@H]2CCCN2C(=O)[C@H]2CCCN2C(=O)[C@H](C)NC(=O)[C@H](CCCCN)NC(=O)[C@H](CCCCN)NC(=O)[C@H](CCCCN)NC(=O)[C@H](CCCNC(=N)N)NC1=O
notes: also called ^LP-A-K-V-R / ^DP-A-K-K-K
B3: target cyclic peptide 20 (peptide)
peptide: cyclo(PAYVRKKYA[dP])
SMILES: CC(C)[C@@H]1NC(=O)[C@H](Cc2ccc(O)cc2)NC(=O)[C@H](C)NC(=O)[C@@H]2CCCN2C(=O)[C@H]2CCCN2C(=O)[C@H](C)NC(=O)[C@H](Cc2ccc(O)cc2)NC(=O)[C@H](CCCCN)NC(=O)[C@H](CCCCN)NC(=O)[C@H](CCCNC(=N)N)NC1=O
notes: also called ^LP-A-Y-V-R / ^DP-A-Y-K-K
B4: target cyclic peptide 22 (peptide)
peptide: cyclo(PAAVRKKAA[dP])
SMILES: CC(C)[C@@H]1NC(=O)[C@H](C)NC(=O)[C@H](C)NC(=O)[C@@H]2CCCN2C(=O)[C@H]2CCCN2C(=O)[C@H](C)NC(=O)[C@H](C)NC(=O)[C@H](CCCCN)NC(=O)[C@H](CCCCN)NC(=O)[C@H](CCCNC(=N)N)NC1=O
notes: also called ^LP-A-A-V-R / ^DP-A-A-K-K
B5: target cyclic peptide 21 (peptide)
peptide: cyclo(PAWVRKKWA[dP])
SMILES: CC(C)[C@@H]1NC(=O)[C@H](Cc2c[nH]c3ccccc23)NC(=O)[C@H](C)NC(=O)[C@@H]2CCCN2C(=O)[C@H]2CCCN2C(=O)[C@H](C)NC(=O)[C@H](Cc2c[nH]c3ccccc23)NC(=O)[C@H](CCCCN)NC(=O)[C@H](CCCCN)NC(=O)[C@H](CCCNC(=N)N)NC1=O
notes: also called ^LP-A-W-V-R / ^DP-A-W-K-K
B6: target cyclic peptide 19 (peptide)
peptide: cyclo(PAIVRKKPA[dP])
SMILES: CC[C@H](C)[C@@H]1NC(=O)[C@H](C)NC(=O)[C@@H]2CCCN2C(=O)[C@H]2CCCN2C(=O)[C@H](C)NC(=O)[C@@H]2CCCN2C(=O)[C@H](CCCCN)NC(=O)[C@H](CCCCN)NC(=O)[C@H](CCCNC(=N)N)NC(=O)[C@H](C(C)C)NC1=O
notes: also called ^LP-A-I-V-R / ^DP-A-P-K-K
B7: target cyclic peptide 3 (peptide)
peptide: cyclo(PEWVRKKWI[dP])
SMILES: CC[C@H](C)[C@@H]1NC(=O)[C@H](Cc2c[nH]c3ccccc23)NC(=O)[C@H](CCCCN)NC(=O)[C@H](CCCCN)NC(=O)[C@H](CCCNC(=N)N)NC(=O)[C@H](C(C)C)NC(=O)[C@H](Cc2c[nH]c3ccccc23)NC(=O)[C@H](CCC(=O)O)NC(=O)[C@@H]2CCCN2C(=O)[C@H]2CCCN2C1=O
notes: also called compound 3
B8: target cyclic peptide 1 (peptide)
peptide: cyclo(PEIVRKKPI[dP])
SMILES: CC[C@H](C)[C@@H]1NC(=O)[C@H](CCC(=O)O)NC(=O)[C@@H]2CCCN2C(=O)[C@H]2CCCN2C(=O)[C@H]([C@@H](C)CC)NC(=O)[C@@H]2CCCN2C(=O)[C@H](CCCCN)NC(=O)[C@H](CCCCN)NC(=O)[C@H](CCCNC(=N)N)NC(=O)[C@H](C(C)C)NC1=O
notes: mimic of PDGF loop III on a diproline template; also called compound 1
B9: target cyclic peptide 2 (peptide)
peptide: cyclo(PEYVRKKYI[dP])
SMILES: CC[C@H](C)[C@@H]1NC(=O)[C@H](Cc2ccc(O)cc2)NC(=O)[C@H](CCCCN)NC(=O)[C@H](CCCCN)NC(=O)[C@H](CCCNC(=N)N)NC(=O)[C@H](C(C)C)NC(=O)[C@H](Cc2ccc(O)cc2)NC(=O)[C@H](CCC(=O)O)NC(=O)[C@@H]2CCCN2C(=O)[C@H]2CCCN2C1=O
notes: also called compound 2

Biological target: T1, platelet-derived growth factor …
Test: solid-phase competition, displacement of 125I-PDGF-BB from plate-immobilised PDGFR-β

| IC50 [mM] | Binder |
| --- | --- |
| 2.5 | B1 |
| 2.5 | B2 |
| 2 | B3 |
| < 2.5 | B4 |
| 2 | B5 |
| < 2.5 | B6 |
| 1.5 | B7 |
| 2.2 | B8 |
| 2 | B9 |
